Measurements published in patent publication US20040151724A1 (published 2004).

Target: T1, MUC1 (UniProt P15941 24-1255, limits assumed)
T1 construct: whole, on cells; also called B16MUC1; C57MUC1
Assay: flow cytometry of Fab on C57MUC1 cells (murine + MUC1)

T1 sequence (P15941 24-1255 limits assumed): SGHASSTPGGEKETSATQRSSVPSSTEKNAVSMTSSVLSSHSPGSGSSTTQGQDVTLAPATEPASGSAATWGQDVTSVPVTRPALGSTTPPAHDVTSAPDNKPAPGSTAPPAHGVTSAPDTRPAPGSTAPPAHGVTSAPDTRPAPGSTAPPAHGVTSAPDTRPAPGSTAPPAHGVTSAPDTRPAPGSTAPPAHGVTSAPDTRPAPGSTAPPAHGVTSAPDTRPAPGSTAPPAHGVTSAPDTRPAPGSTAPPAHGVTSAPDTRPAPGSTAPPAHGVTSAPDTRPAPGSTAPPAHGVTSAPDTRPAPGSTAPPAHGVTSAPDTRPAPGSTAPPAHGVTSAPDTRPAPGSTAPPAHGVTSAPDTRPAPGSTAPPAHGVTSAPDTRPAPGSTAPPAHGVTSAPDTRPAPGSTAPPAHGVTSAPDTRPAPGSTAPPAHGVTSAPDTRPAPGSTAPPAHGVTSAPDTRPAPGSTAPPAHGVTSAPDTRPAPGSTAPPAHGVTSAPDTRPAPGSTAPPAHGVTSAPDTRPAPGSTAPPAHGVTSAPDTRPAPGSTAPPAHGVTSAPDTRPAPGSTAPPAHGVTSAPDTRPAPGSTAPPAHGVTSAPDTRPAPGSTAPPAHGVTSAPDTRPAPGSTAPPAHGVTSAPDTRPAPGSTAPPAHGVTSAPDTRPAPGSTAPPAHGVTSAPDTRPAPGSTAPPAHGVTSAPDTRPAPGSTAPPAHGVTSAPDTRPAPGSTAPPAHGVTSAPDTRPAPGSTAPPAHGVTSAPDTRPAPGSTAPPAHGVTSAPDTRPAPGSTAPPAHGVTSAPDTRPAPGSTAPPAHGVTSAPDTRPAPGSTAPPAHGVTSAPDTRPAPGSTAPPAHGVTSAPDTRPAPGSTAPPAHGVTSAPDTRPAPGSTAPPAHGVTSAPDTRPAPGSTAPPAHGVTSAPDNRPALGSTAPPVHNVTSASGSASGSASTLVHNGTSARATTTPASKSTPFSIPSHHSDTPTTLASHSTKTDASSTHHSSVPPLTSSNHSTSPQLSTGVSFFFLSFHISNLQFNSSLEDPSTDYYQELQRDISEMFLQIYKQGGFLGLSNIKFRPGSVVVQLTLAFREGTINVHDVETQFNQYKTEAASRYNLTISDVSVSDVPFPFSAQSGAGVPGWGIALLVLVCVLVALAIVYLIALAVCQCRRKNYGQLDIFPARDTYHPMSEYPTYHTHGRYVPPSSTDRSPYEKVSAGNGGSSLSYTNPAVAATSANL

B1: Fab 14.6.20 (Fab, V domains shown)
VH: EVQLVQSGGGLVQPGGSLRLSCTASGFIFNNYAMSWVRQAPGKGLEWVSGISTGGSSTYHADSVKGRFTISRDNFKKTLWLQMNSLTPEDAAVYYCARHANFWNGYLEKGAIDYWGQGTLVTVSS
VL: ELQMTQSPSTLSASVGDRVTITCRASHSVSGWLAWYQQKPGKAPKLLSYEPSSLESGVPSRFSGSGSGTEFTLTISSLQPEDFATYYCQESYRITSLTFGGGTKVETRR
notes: also called Fab clone 14.6.20
  binding result: no binding
